US20240228562A1, “NOVEL LIPOCALIN MUTEINS SPECIFIC FOR CONNECTIVE TISSUE GROWTH FACTOR (CTGF)” (PIERIS PHARMACEUTICALS GMBH, priority 2021, published 2024)
Marks after values point to notes of the source that are not given here.

T1: CTGF (Homo sapiens, UniProt P29279)
T1 sequence (P29279 27-349): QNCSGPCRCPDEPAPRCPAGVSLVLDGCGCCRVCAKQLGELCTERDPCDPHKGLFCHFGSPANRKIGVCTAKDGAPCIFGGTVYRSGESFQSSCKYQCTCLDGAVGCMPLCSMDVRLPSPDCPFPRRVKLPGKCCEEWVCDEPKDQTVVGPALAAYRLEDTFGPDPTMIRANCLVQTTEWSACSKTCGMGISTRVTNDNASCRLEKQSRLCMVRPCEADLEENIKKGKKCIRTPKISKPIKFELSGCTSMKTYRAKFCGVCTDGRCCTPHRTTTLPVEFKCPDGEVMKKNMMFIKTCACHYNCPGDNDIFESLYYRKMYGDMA


Assays:
Mouse lung PK = type: in vivo; details: mice
Experimental: The lipocalin mutein (100 μg/mouse) was oropharyngeally administered to mice, and exposure in different compartments was measured after 2, 4, 8 and 24 h by ELISA (FIG. 7A). 100 μg of the antibody were administered to mice via intravenous infusion, and exposure was measured after 1, 8, 24 and 96 h by ELISA (FIG. 7B).

cynomolgus CTGF = assay: SPR binding kinetics and affinity, cynomolgus CTGF; parameters: key: B binding without determination of kinetics constants; details: 25° C., 1:1 binding model
How it was run: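 Targets either amine-coupled to CM5 chip (300–1100 RU; Fc-tagged human, untagged rat/murine) or Fc-captured via anti-human IgG; muteins injected 180 s contact, 900–3600 s dissociation, 30 μL/min, 25° C. Double-referenced sensorgrams fit to 1:1 model giving kon, koff and KD.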

[1] = tested on: TGF-β1-stimulated normal human lung fibroblasts (NHLFs); assay: Binding to activated human lung fibroblasts; type: cell-based; details: 24 h incubation with 10 ng/ml TGF-β1; immunofluorescence of lipocalin scaffold
Experimental: Binding of the CTGF-targeting lipocalin muteins and fusion proteins disclosed herein to CTGF-expressing, TGF-β1-stimulated normal human lung fibroblasts (NHLFs) was tested by incubating NHLFs for 24 h with constructs and 10 ng/ml TGF-β1, which induces CTGF expression. NHLFs without TGF-β1 stimulation were included as negative control. Constructs were detected with a secondary antibody against the lipocalin scaffold coupled to AlexaFluor647 after NHLFs were fixed in 4% PFA and blocked with 5% BSA. Images were acquired on the Cytation5 Reader (Biotek). Signals were quantified in Gene5 software and normalized to the respective controls. For the experiments, cells were grown under conditions that facilitate pseudo-3D extracellular matrix deposition as described by Good et al. (Good et al., BMC Biomed Eng, 1:14 (2019)).
Representative data are shown in FIG. 4 and illustrate the ability of the CTGF-targeting lipocalin muteins and fusion proteins disclosed herein to bind to activated human lung fibroblasts expressing CTGF in a concentration-dependent manner.

[2] = Nebulization behavior, droplet size distribution by laser diffraction; type: physicochemical; details: vibrating mesh nebulizer, Malvern Spraytec
Experimental: The suitability of the CTGF-targeting lipocalin muteins and fusion proteins disclosed herein for administration via inhalation was tested using a commercially available vibrating mesh nebulizer (Philips InnoSpire Go®). Droplet size distribution was characterized by laser diffraction using the nebulizer in conjunction with Malvern Spraytec and inhalation cell.
Representative data for the exemplary CTGF-targeting lipocalin mutein of SEQ ID NO: 23 (A) and for the fusion protein of SEQ ID NO: 74 (B) are shown in FIG. 5 and below Table 10. […] Nebulization of the lipocalin muteins and fusion proteins had no negative impact on the stability and activity of the molecules (data not shown).

CTGF = molecular target: T1, CTGF; assay: ELISA-based competition assay with anti-CTGF antibody; type: binding; details: data not shown
[3] = tested on: CCL-206 lung fibroblasts co-cultured with primary murine Epcam-positive epithelial progenitor cells; assay: Lung organoid formation model; type: cell-based; details: 14 days treatment; nintedanib 100 nM; SEQ ID NO: 74 at 100 nM
Experimental: The effect of CTGF-targeting lipocalin muteins was analyzed using an organoid model for lung regeneration. In this model, CCL-206 lung fibroblasts are co-cultured with freshly isolated primary murine Epcam-positive epithelial progenitor cells, and the number of formed organoids is analyzed after 14 days. TGF-b1 pre-treatment of CCL-206 fibroblasts leads to an impaired organoid formation and resembles an impairment of lung regeneration as for example observed in lung disease, such as IPF. The impaired formation of organoids can be rescued by treatment with different drugs, such as nintedanib, which is used as a positive control in this model. […] Analysis of organoid numbers confirmed the impairment of organoid formation by TGF-b1 stimulation.

[4] = mutein 100 μg oropharyngeal, antibody 100 μg intravenous, compartment of administration set to 100%

Chain of cynomolgus CTGF (as listed by the source): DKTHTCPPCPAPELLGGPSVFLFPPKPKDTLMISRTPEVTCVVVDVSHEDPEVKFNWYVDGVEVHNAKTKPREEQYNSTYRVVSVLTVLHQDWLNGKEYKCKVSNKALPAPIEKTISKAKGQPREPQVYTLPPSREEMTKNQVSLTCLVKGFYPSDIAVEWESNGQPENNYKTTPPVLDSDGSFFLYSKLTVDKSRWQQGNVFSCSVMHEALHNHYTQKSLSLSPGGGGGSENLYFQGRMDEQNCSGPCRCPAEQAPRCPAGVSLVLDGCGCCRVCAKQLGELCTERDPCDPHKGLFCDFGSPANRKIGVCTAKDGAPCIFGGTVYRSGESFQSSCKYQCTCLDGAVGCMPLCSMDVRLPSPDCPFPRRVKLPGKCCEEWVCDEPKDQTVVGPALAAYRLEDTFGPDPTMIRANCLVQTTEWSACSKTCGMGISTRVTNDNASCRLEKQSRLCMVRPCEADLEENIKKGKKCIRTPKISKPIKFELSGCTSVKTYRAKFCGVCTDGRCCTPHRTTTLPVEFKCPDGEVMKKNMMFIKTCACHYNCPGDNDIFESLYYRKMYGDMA

Molecule	cynomolgus CTGF koff (cynomolgus CTGF)	cynomolgus CTGF kon (cynomolgus CTGF)	Binding to TGFβ-activated NHLFs [1]	% V < 1 μm [2] [%]	% V < 5 μm [2] [%]	% V < 10 μm [2] [%]	Dv10 [2] [μm]	Dv50 [2] [μm]	Dv90 [2] [μm]	further results
SEQ ID NO: 23: optimized CTGF-binding hNGAL lipocalin mutein (protein, lipocalin mutein) QDSTSDLIPAPPLSKVPLQQNFQDNQFQGKWYVVGVAGNAILRPDKQPAKMFATIYELKEDKSYDVTSVRFEAKSCKYTIKTFVPGSQPGEFTSGQIKSAPGQTSTLVRVVSTNYNQHAMVFFKHVSQNREIFVITLYGRTKELTSELKENFIRFSKSLGLPENHIVFPVPIDQCIDG	B	B	binding	1.874	68.97	93.55	1.4	3.5	8.6	Exposure in the lung (Mouse lung PK; 100 μg/mouse oropharyngeal, 2-24 h, ELISA): significant exposure in the lung over 24 h; Lung exposure compared to plasma (Mouse lung PK; [4]): 100* %; Plasma exposure compared to lung (Mouse lung PK; [4]): approx. 1%; Plasma exposure compared to lung (Mouse lung PK; mutein 100 μg oropharyngeal, antibody 100 μg intravenous, compartment of administration set to 100%, listed as 23): 0.9%; cynomolgus CTGF KD (cynomolgus CTGF): B; Dv10 ([2]; listed as 23): 1.471 μm; Dv50 ([2]; listed as 23): 3.484 μm; Dv90 ([2]; listed as 23): 8.622 μm; Competition with antibody of SEQ ID NOs: 60 and 61 for binding to CTGF (CTGF): competed with the antibody
SEQ ID NO: 74: fusion protein comprising two CTGF-binding lipocalin muteins (protein, fusion protein) QDSTSDLIPAPPLSKVPLQQNFQDNQFQGKWYVVGLAGNAILREDKQPAKMFATIYELKEDKSYDVTSVRFEAKSCKYTIKTFVPGSQPGEFTAGYIKSAPGQTSTLVRVVSTNYNQHAMVFFKHVTQNREIFVITLYGRTKELTSELKENFIRFSKSLGLPENHIVFPVPIDQCIDGGGGGSGGGGSGGGGSQDSTSDLIPAPPLSKVPLQQNFQDNQFQGKWYVVGWAGNVKLREDKQPQKMSATIYELKEDKSYDVTEVVFEQKKCHYIIKTFVPGSQPGEFTAGDIKSPPGYTSSLVRVVSTNYNQHAMVFFKKVSQNREFFWITLYGRTKELTSELKENFIRFSKSLGLPENHIVFPVPIDQCIDG	–	–	binding	0.984	54.81	88.4	1.8	4.6	10.5	Effect on TGF-b1 impaired organoid formation [3]: even stronger trend for improved organoid formation; Dv10 ([2]; listed as 74): 1.824 μm; Dv50 ([2]; listed as 74): 4.589 μm
SEQ ID NO: 15: optimized CTGF-binding hNGAL lipocalin mutein (protein, lipocalin mutein) QDSTSDLIPAPPLSKVPLQQNFQDNQFQGKWYVVGLAGNAILREDKQPAKMFATIYELKEDKSYDVTSVRFEAKSCKYTIKTFVPGSQPGEFTAGYIKSAPGQTSTLVRVVSTNYNQHAMVFFKHVTQNREIFVITLYGRTKELTSELKENFIRFSKSLGLPENHIVFPVPIDQCIDG	7.57e-05 s⁻¹	107000 M⁻¹ s⁻¹	–	–	–	–	–	–	–	–
